Measured values as given in article PMC3063406 (Cell, 2011).

T1: recombinant RIM1 PDZ-domain (rat RIM1 residues 596-704) (rat, UniProt Q9JIR4 596-704, ^15N-labeled (for the HSQC spectra))
T1 sequence (looked up): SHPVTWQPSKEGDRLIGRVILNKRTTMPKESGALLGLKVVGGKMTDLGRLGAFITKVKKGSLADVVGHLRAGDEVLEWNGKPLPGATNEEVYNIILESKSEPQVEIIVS


Assays:
[1] = target: recombinant RIM1 PDZ-domain (rat RIM1 residues 596-704) (rat) (UniProt Q9JIR4); test: ITC
[2] = target: T1, recombinant RIM1 PDZ-domain (rat RIM1 …); test: ITC

Molecule	Kd [1] [µM]	stoichiometry N [1]	Kd [2] [µM]	stoichiometry N [2]
C-terminus of N-type Ca^2+-channels (tested by HSQC and calorimetry) (from UniProt Q00975 1-2339) (domain or fragment)	23.4	0.93		
RHDAYSESEDDWC [peptide from the C-terminus of the P/Q-type Ca^2+-channel (residues RHDAYSESEDDWC)]			10.3 ± 0.6	0.93
